These results are taken from patent publication US20240132591A1 (PANDION OPERATIONS, published 2024).

Changes are numbered by the printed parent chain. “And” between values parts separate entries of the source, which are not always exact repeats. Equal entries are not always repeated.

One test concerns the target T1, cyno MAdCAM (cyno).
T1 construct: also called cynomolgus monkey MAdCAM-1
The test can be described thus: BLI Octet, AHC capture. (In general: In BLI a coated tip is dipped into the sample, and binding shifts an interference pattern.)

Test [1] deals with T2, Insulin (UniProt P01308 25-54; P01308 90-110).
T2 construct: Polyreactivity antigen; mature insulin has A and B chains; also called human insulin
The test can be described thus: ELISA on insulin-coated plate. In general terms: An ELISA detects its analyte on a solid surface through an enzyme-linked reagent.

The target in test [2] is T2, Insulin. The test can be described thus: ELISA on insulin-coated plate, 100 nM. As for the experimental part: Non-specific DNA and Insulin binding is predictive of poor pharmacokinetics (PK). An immunosorbent plate was coated with dsDNA at a concentration of 1 μg/mL or Insulin at 5 μg/mL in PBS pH 7.4, 75 μl/well, and incubated overnight at 4° C. Wells were washed with PBS pH 7.4 containing 0.05% Tween-20 (wash buffer) three times, and then blocked with 200 μl/well 1% BSA in PBS pH 7.4 (block buffer) for two hours at room temperature. […] The diluted material was added to the DNA/insulin coated plate at 75 μl/well for 1 hour at room temperature. After three washes with wash buffer, a donkey anti-human FcY HRP conjugated polyclonal antibody, diluted to 1:5000 in assay buffer, was added to the plate at 75 μl/well for 1 hr at room temperature. After three washes with wash buffer and three washes with wash buffer (with no tween-20), the assay was developed with TMB, and stopped with 1N HCL. OD 450 nm was measured. The experiment included appropriate controls for non-specific binding of test articles to the plate/block in the absence of DNA or insulin.

Test [3] concerns the target T3, Human MAdCAM (human, UniProt Q13477 19-317, limits assumed).
T3 construct: also called huMAdCAM; human MAdCAM-1
T3 sequence (looked up): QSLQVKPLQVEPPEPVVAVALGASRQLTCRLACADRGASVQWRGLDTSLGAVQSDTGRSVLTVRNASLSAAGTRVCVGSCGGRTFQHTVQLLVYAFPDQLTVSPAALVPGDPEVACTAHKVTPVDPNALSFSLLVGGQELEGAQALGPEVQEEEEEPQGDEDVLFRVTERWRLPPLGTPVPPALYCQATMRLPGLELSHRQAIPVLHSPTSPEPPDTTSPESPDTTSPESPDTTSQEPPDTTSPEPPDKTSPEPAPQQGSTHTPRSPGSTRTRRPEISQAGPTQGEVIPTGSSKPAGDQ
The test can be described thus: BLI Octet, AHC capture.

In test [4] the target is T4, mouse MAdCAM (mouse, UniProt Q61826 22-365, limits assumed).
T4 construct: also called mouse MAdCAM-1
T4 sequence (looked up): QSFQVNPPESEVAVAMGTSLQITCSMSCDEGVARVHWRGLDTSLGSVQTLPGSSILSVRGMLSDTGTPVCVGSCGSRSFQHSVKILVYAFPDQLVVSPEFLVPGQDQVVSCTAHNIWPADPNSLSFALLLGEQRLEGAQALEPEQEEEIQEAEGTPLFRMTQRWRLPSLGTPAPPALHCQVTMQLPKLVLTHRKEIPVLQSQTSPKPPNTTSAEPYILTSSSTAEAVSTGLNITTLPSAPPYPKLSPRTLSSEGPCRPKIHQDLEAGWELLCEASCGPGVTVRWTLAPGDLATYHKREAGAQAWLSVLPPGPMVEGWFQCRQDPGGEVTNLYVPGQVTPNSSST
Kind of test: BLI Octet.

Test [5] has as its target T3, Human MAdCAM. The test can be described thus: BLI Octet.
Test [6] has as its target T4, mouse MAdCAM. Kind of test: BLI Octet, AHC capture.

B1: PRNT1 (antibody, human IgG1, kappa)
heavy: EVQLLESGGGLVQPGGSLRLSCAASGFTFSDFWMHWVRQAPGKGLEWISYISGDSGYTNYADSVKGRFTISRDNSKNTLYLQMNSLRAEDTAVYYCARDRPYYYYMDVWGKGTTVTVSSASTKGPSVFPLAPSSKSTSGGTAALGCLVKDYFPEPVTVSWNSGALTSGVHTFPAVLQSSGLYSLSSVVTVPSSSLGTQTYICNVNHKPSNTKVDKKVEPKSCDKTHTCPPCPAPEAAGAPSVFLFPPKPKDTLMISRTPEVTCVVVDVSHEDPEVKFNWYVDGVEVHNAKTKPREEQYNSTYRVVSVLTVLHQDWLNGKEYKCKVSNKALPAPIEKTISKAKGQPREPQVYTLPPSREEMTKNQVSLTCLVKGFYPSDIAVEWESNGQPENNYKTTPPVLDSDGSFFLYSKLTVDKSRWQQGNVFSCSVMHEALHNHYTQKSLSLSPGGGGGSAPTSSSTKKTQLQLEHLLLDLQMILNGINNYKNPKLTRMLTFKFYMPKKATELKHLQCLEEELKPLEEALNLAPSKNFHLRPRDLISDINVIVLELKGSETTFMCEYADETATIVEFINRWITFSQSIISTLT
light: DIQMTQSPSSLSASVGDRVTITCRASQSVSRSLAWYQQKPGKAPKLLIYAASSLQSGVPSRFSGSGSGTDFTLTISSLQPEDFATYYCQQYKSYPVTFGQGTKVEIKRTVAAPSVFIFPPSDEQLKSGTASVVCLLNNFYPREAKVQWKVDNALQSGNSQESVTEQDSKDSTYSLSSTLTLSKADYEKHKVYACEVTHQGLSSPVTKSFNRGEC
notes: also called parent PRNT1; parental molecule PRNT1
Consider B1, for which, in the test with cyno MAdCAM, the Kd was 13 nM. This lies in the double-digit nanomolar range.

B2: MIAB153 (antibody, human IgG1, kappa)
heavy: B1 heavy
light: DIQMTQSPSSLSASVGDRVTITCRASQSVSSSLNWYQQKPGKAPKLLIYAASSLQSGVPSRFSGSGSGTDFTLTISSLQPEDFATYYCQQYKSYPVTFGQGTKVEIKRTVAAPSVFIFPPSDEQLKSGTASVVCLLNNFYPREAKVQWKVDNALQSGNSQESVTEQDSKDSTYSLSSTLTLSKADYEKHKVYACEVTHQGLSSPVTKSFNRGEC
Consider B2, for which, in the test with Insulin [1], the binding result is reported as “no binding (tested: 100 nM)”. This molecule displayed an Insulin polyreactivity score with Insulin [2] of 2.46. In addition, in the test with Human MAdCAM [3], the Kd was 8360 nM, the off-rate (koff) worked out at 0.543 s⁻¹ and the kon amounted to 64800 M⁻¹ s⁻¹.

B3: MIAB169 (antibody, human IgG1, kappa)
heavy: B1 heavy with Y105I
light: B1 light
notes: Y105I variant; also called MIAB169-CHO; MIAB169-HEK
On to B3, for which, in the test with Insulin [1], the binding result is “no binding (tested: 100 nM)”. In addition, in the test with Human MAdCAM [3], the Kd was 266 nM and 340 nM; the “fold lower affinity than PRNT1” value is 10 fold; the koff was 0.0738 s⁻¹; the kon worked out at 278000 M⁻¹ s⁻¹. Besides, binding with cyno MAdCAM was put at a Kd of 153 nM.

B4: PMAB1 (bispecific antibody, human IgG1, kappa)
heavy: EVQLLESGGGLVQPGGSLRLSCAASGFTFSNSDMSWVRQAPGKGLEWVSGITISGGSTYYADSVKGRFTISRDNSKNTLYLQMNSLRAEDTAVYYCARGRGGSGWLDYWGQGTLVTVSSASTKGPSVFPLAPSSKSTSGGTAALGCLVKDYFPEPVTVSWNSGALTSGVHTFPAVLQSSGLYSLSSVVTVPSSSLGTQTYICNVNHKPSNTKVDKKVEPKSCDKTHTCPPCPAPEAAGAPSVFLFPPKPKDTLMISRTPEVTCVVVDVSHEDPEVKFNWYVDGVEVHNAKTKPREEQYNSTYRVVSVLTVLHQDWLNGKEYKCKVSNKALPAPIEKTISKAKGQPREPQVYTLPPSREEMTKNQVSLTCLVKGFYPSDIAVEWESNGQPENNYKTTPPVLDSDGSFFLYSKLTVDKSRWQQGNVFSCSVMHEALHNHYTQKSLSLSPGGGGGSGGGGSGGGGSEVQLLESGGGLVQPGGSLRLSCAASGFTFSDFWMHWVRQAPGKGLEWISYISGDSGYTNYADSVKGRFTISRDNSKNTLYLQMNSLRAEDTAVYYCARDRPYYYYMDVWGKGTTVTVSSGGGGSGGGGSGGGGSGGGGSDIQMTQSPSSLSASVGDRVTITCRASQSVSRSLAWYQQKPGKAPKLLIYAASSLQSGVPSRFSGSGSGTDFTLTISSLQPEDFATYYCQQYKSYPVTFGQGTKVEIK
light: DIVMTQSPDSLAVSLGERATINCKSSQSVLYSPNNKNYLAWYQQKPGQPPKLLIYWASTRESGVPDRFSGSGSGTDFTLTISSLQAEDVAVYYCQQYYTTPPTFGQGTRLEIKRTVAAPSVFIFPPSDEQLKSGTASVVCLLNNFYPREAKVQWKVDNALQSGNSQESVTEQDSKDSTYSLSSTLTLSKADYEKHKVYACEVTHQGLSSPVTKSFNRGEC
notes: also called Parental molecule; parental PMAB1
Turning to B4, in the test with mouse MAdCAM [4], the affinity, expressed as Kd, was 124 nM; the koff stood at 0.0463 s⁻¹; the kon was 374000 M⁻¹ s⁻¹; the response turned out to be 0.256. In the test with Human MAdCAM [5], this molecule gave a Kd of 37.6 nM, a koff of 0.0398 s⁻¹, a kon of 1.06e+06 M⁻¹ s⁻¹ and a response of 0.0839. For the same molecule, in the test with mouse MAdCAM [6], the Kd was 138 nM, the koff came out at 0.0204 s⁻¹, the on-rate constant (kon) was 148000 M⁻¹ s⁻¹ and the response worked out at 0.139. Besides, in the test with Human MAdCAM [3], the Kd was 135 nM and 115 nM and 116 nM and 62.8 nM; the koff was 0.0341 s⁻¹ and 0.0351 s⁻¹ and 0.0276 s⁻¹ and 0.0365 s⁻¹; the kon is 252000 M⁻¹ s⁻¹ and 306000 M⁻¹ s⁻¹ and 238000 M⁻¹ s⁻¹ and 581000 M⁻¹ s⁻¹.

In general, Kd refers to the constant that tells how readily two partners part at equilibrium. For orientation: koff means the rate constant with which the complex falls apart. Higher therefore signals a short-lived complex. For orientation: kon means the second-order rate constant of association. Higher therefore signals fast association.
